Assay [1] deals with T1, mouse CCR2 (mouse, UniProt P51683 1-373).
T1 construct: whole, on cells; also called mCCR2
Briefly: flow cytometry on ExpiCHO cells transiently transfected with mouse CCR2; goat anti-mouse Fc biotin and streptavidin-PE. The protocol: (§1) ExpiCHO cells were transiently transfected with mouse CCR2, mouse CSF1R, or both mouse CCR2 and CSF1R, according to the manufacturer's instructions. In brief, the transfections were performed with ExpiCHO cells at a cell density of 5.6-6.3×10⁶ cells/mL and at least 95% viability. For each transfection, 25 μg of DNA was diluted with 1 mL of OptiPro SFM (Gibco 12309050) and filtered using spin-X centrifuge tube filters (Corning 8160). A solution of 920 µL of OptiPro and 80 μL of expifectamine was added to the filtered DNA, incubated for 1 minute at room temperature, and then added to the cells. On day 1 of the transfection, the cells were enhanced using 150 μL of ExpiCHO enhancer.
(§2) On day 2 of the transfection, the cells were washed with PBS containing 1% BSA (Sigma) and used to set 96-well V-bottom plates (Biotix AP-0350-9CVS) with 100,000 cells/well. UniTI-01 was added to the cells in serial dilutions and incubated for 1 hour at 4° C. The plates were washed twice with PBS containing 1% BSA. […] The plates were read on a CytoFLEX S (Beckman Coulter). Data were calculated as the median fluorescence intensity of the PE-positive population vs. the median fluorescence intensity of the PE-negative population. The data was normalized for the percent of total median fluorescence intensity.
For orientation: A flow cytometer gives signals particle by particle.

Assay [2] deals with T2, mouse CSF1R (mouse, UniProt P09581 20-977).
T2 construct: whole, on cells; also called mCSF1R
T2 sequence (looked up): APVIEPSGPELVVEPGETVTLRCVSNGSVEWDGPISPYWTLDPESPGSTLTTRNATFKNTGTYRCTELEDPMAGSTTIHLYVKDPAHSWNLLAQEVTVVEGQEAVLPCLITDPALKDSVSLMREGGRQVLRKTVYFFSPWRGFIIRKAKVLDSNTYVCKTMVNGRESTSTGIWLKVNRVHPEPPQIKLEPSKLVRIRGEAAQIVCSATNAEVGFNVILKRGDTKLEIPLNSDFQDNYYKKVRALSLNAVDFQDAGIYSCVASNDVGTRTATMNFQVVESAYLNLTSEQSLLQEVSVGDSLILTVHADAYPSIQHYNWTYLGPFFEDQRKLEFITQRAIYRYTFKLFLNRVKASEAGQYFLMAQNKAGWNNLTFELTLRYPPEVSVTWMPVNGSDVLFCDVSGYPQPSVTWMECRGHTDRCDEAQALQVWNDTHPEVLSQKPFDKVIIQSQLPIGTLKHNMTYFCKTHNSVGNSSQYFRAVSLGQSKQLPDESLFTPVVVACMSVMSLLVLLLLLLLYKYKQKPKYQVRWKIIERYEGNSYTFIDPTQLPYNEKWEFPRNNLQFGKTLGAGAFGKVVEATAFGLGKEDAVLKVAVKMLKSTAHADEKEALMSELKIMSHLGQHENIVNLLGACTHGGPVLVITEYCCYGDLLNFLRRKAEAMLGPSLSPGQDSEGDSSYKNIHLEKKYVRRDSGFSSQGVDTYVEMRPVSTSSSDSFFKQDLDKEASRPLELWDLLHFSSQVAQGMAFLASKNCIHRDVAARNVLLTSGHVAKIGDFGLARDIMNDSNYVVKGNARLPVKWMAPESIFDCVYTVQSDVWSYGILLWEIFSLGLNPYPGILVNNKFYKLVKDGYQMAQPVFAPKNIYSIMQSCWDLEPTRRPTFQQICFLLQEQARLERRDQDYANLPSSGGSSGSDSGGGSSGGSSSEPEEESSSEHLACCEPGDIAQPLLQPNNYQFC
Briefly: flow cytometry on ExpiCHO cells transiently transfected with mouse CSF1R; goat anti-mouse Fc biotin and streptavidin-PE. The protocol:
as §1, §2

The target of assay [3] is T3, mouse CCR2 and mouse CSF1R, both expressed on the same ExpiCHO cells (mouse, UniProt P51683 1-373; P09581 20-977).
T3 construct: whole, on cells; Two separate membrane proteins on one cell, not a complex; also called CCR2 and CSF1R double positive cells; both mCCR2 and mCSF1R
Nature of the assay: flow cytometry on ExpiCHO cells transiently transfected with both mouse CCR2 and mouse CSF1R; goat anti-mouse Fc biotin and streptavidin-PE. The protocol:
as §1, §2

T3 sequence (P51683 whole entry, one chain of several): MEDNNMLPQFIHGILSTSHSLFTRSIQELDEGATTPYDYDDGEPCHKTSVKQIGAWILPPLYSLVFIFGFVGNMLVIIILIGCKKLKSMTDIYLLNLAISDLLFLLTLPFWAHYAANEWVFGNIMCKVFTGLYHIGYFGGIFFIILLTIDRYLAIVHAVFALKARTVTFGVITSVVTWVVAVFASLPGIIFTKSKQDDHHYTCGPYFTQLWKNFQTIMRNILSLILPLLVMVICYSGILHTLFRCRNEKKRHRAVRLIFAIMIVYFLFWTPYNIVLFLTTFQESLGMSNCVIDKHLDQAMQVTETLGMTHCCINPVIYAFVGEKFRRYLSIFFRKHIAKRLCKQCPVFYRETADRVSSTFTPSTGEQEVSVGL
T1 sequence (P51683 whole entry): as the sequence (P51683 whole entry, one chain of several) above

B1: UniTI-01 (multispecific molecule #1, anti-CCR2/anti-CSF1R bispecific antibody) (bispecific antibody)
heavy 1: QVQLQESGPGLVQPSQTLSLTCTVSGFSLTDFSVHWVRQPPGKGLEWMGRIRSEGNTDYNSALKSRLSISRDTSKSQVFLKMNSLQTEDTAIYFCTRGDILGFGYWGQGVMVTVSSAQTTAPSVYPLAPGCGDTTSSTVTLGCLVKGYFPEPVTVTWNSGALSSDVHTFPAVLQSGLYTLTSSVTSSTWPSQTVTCNVAHPASSTKVDKKVERRTIKPCPPCKCPAPNLLGGPSVFIFPPKIKDVLMISLSPIVTCVVVDVSEDDPDVQISWFVNNVEVHTAQTQTHREDYNSTLRVVSALPIQHQDWMSGKEFKCKVNNKDLPAPIERTISKPKGSVRAPQVYVLPPCEEEMTKKQVTLWCMVTDFMPEDIYVEWTNNGKTELNYKNTEPVLDSDGSYFMYSKLRVEKKNWVERNSYSCSVVHEGLHNHHTTKSFSRTPGK
light 1: DIVMTQSPLSVSVTPGESASISCRSSKSLLHFKGITFVYWYLQKPGQSPQLLIFRMSSLASGVPDRFSGSGSETDFTLKISRVEAEDVGTYYCGQLLENPYTFGAGTKLELKRADAAPTVSIFPPSMEQLTSGGATVVCFVNNFYPRDISVKWKIDGSEQRDGVLDSVTDQDSKDSTYSMSSTLSLTKVEYERHNLYTCEVVHKTSSSPVVKSFNRNEC
heavy 2: QVQLQQSGAELVKPGSSVKISCKASGYTFTSNFMHWIKQQPGNGLEWIGWIYPGDGDTEYNQKFNGKATLTADKSSSTAYMQLSSLTSEDSAVYFCAVNYGGYVLDAWGQGASVTVSSAETTAPSVYPLAPGTALKSNSMVTLGCLVKGYFPEPVTVTWNSGALSSGVHTFPAVLQSGLYTLTSSVTVPSSTWSSQAVTCNVAHPASSTKVDKKIVPRECNTIKPCPPCKCPAPNLLGGPSVFIFPPKIKDVLMISLSPIVTCVVVDVSEDDPDVQISWFVNNVEVHTAQTQTHREDYNSTLRVVSALPIQHQDWMSGKEFKCKVNNKDLPAPIERTISKPKGSVRAPQVCVLPPPEEEMTKKQVTLSCAVTDFMPEDIYVEWTNNGKTELNYKNTEPVLDSDGSYFMVSKLRVEKKNWVERNSYSCSVVHEGLHNHHTTKSFSRTPGK
light 2: EIVLTQSPTTMAASPGEKVTITCRASSSTNYMSWYQQKSGASPKPWIYETSKLASGVPDRFSGSGSGTSYSFTISSMETEDAATYYCHQWSSTPLTFGSGTKLEIKRADAAPTVSIFPPSMEQLTSGGATVVCFVNNFYPRDISVKWKIDGSEQRDGVLDSVTDQDSKDSTYSMSSTLSLTKVEYERHNLYTCEVVHKTSSSPVVKSFNRNEC
notes: one arm for each target; also called mUniTI-01
Consider B1, for which the half-maximal effective concentration (EC50) is 15 nM in assay [1], 1 nM in assay [2] and 0.4 nM in assay [3].

The term EC50 denotes the concentration giving half of the maximal effect. The low end stands for an effect from little substance, the high end for a need for much substance.

The record behind these values is patent US20220242957A1 (MARENGO THERAPEUTICS, published 2022).
